± gives the uncertainty stated by the source.
Assay: self-splicing fitness, log relative to wild type (ln ratio); higher = more splicing; Tetrahymena group I intron in knt gene, E. coli kanamycin selection, DiMSum; sequences stand for … in CUCUCU…GGAGGGAAAAGUUAUCAGGCAUGCACCUGGUAGCUAGUCUUUAAACCAAUAGAUUGCAUCGGUUUAAAAGGCAAGACCGUCAAAUUGCGGGAAAGGGGUCAACAGCCGUUCAGUACCAAGUCUCAGGGGAAACUUUGAGAUGGCCUUGCAAAGGGUAUGGUAAUAAGCUGACGGACAUGGUCCUAACCACGCAGCCAAGUCCUAAGUCAACAGAUCUUCUGUUGAUAUGGAUGCAGUUCACAGACUAAAUGUCGGUCGGGGAAGAUGUAUUCUUCUCAUAAGAUAUAGUCGGACCUCUCCUUAAUGGGAGCUAGCGGAUGAAGUGAUGCAACACUGGAGCCGCUGGGAACUAAUUUGUAUGCGAAAGUAUAUUGAUUAGUUUUGGAGUACUCGUGGUCG
Method in brief: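 Fitness was computed with DiMSum as the error-weighted combination of replicate fold changes, kanamycin versus none, each normalised to wild type. The library randomised all eight intron nucleotides of the P1ex region, with the intron placed in the knt kanamycin-resistance gene on pET-22b(+) in E. coli BL21(DE3). Six replicate transformations were grown overnight at 37°C or 30°C on LB agar with or without 25 μg/mL kanamycin, plus 100 μg/mL carbenicillin, 50 μM IPTG and 0.2% rhamnose. Pooled colonies were amplicon-sequenced on an Illumina HiSeq 2500.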

| Sequence | self-splicing fitness (ln) (30 °C) | self-splicing fitness (ln) (37 °C) |
| --- | --- | --- |
| UGACAGCAAUAUUACGCAGG | -3.54 ± 0.35 | -1.4 ± 0.2 |
| UGACAGCAAUAUUACGCCUU | -2.19 ± 0.12 | -1.15 ± 0.12 |
| UGACAGCAAUAUUACGCGGU | -3.56 ± 0.19 | -2.68 ± 0.19 |
| UGACAGCAAUAUUACGCUAU | -3.7 ± 0.2 | -1.09 ± 0.1 |
| UGACAGCAAUAUUACGCUGG | -2.21 ± 0.18 | -1.92 ± 0.33 |
| UGACAGCAAUAUUACGCUUA | -1.26 ± 0.088 | -0.0997 ± 0.094 |
| UGACAGCAAUAUUACGGCAC | -3.55 ± 0.19 | -2.23 ± 0.19 |
| UGACAGCAAUAUUACGGGAA | -1.33 ± 0.12 | -0.827 ± 0.081 |
| UGACAGCAAUAUUACGGGAU | -3.3 ± 0.17 | -2.94 ± 0.15 |
| UGACAGCAAUAUUACGGGCC | -3.34 ± 0.22 | -2.23 ± 0.27 |
| UGACAGCAAUAUUACGGGGA | -1.25 ± 0.087 | -1.61 ± 0.12 |
| UGACAGCAAUAUUACGGGGC | -2.96 ± 0.13 | -2.56 ± 0.12 |
| UGACAGCAAUAUUACGGGUC | -3.81 ± 0.24 | -2.94 ± 0.2 |
| UGACAGCAAUAUUACGGUCA | -2.97 ± 0.28 | -0.408 ± 0.17 |
| UGACAGCAAUAUUACGUAAA | -1.01 ± 0.08 | -1.26 ± 0.11 |
| UGACAGCAAUAUUACGUGAG | -0.267 ± 0.028 | -0.365 ± 0.046 |
| UGACAGCAAUAUUACGUUGU | -3.48 ± 0.15 | -2.58 ± 0.2 |
| UGACAGCAAUAUUACGUUUU | -2.76 ± 0.11 | -1.43 ± 0.098 |
| UGAGAGCAAUAUUACGAAGG | -2.94 ± 0.18 | -1.85 ± 0.27 |
| UGAGAGCAAUAUUACGACGU | -2.66 ± 0.19 | -1.78 ± 0.24 |
| UGAGAGCAAUAUUACGAGAA | – | -1.39 ± 0.43 |
| UGAGAGCAAUAUUACGAUUU | -2.34 ± 0.17 | -2.26 ± 0.27 |
| UGAGAGCAAUAUUACGCACU | -3.11 ± 0.32 | -2.02 ± 0.21 |
| UGAGAGCAAUAUUACGCAGC | -3.13 ± 0.23 | -2.16 ± 0.3 |
| UGAGAGCAAUAUUACGCCAG | -3.52 ± 0.42 | -2.41 ± 0.35 |

| Sequence | self-splicing fitness (ln) (30 °C) | self-splicing fitness (ln) (37 °C) |
| --- | --- | --- |
| UGAGAGCAAUAUUACGCCCA | -1.49 ± 0.26 | – |
| UGAGAGCAAUAUUACGGACA | -1.66 ± 0.18 | -0.674 ± 0.2 |
| UGAGAGCAAUAUUACGGAGG | -2.31 ± 0.28 | -1.91 ± 0.3 |
| UGAGAGCAAUAUUACGGGCA | -0.578 ± 0.12 | -0.806 ± 0.17 |
| UGAGAGCAAUAUUACGGGGG | -3.4 ± 0.31 | -1.99 ± 0.22 |
| UGAGAGCAAUAUUACGGUAG | -3.74 ± 0.34 | -2.88 ± 0.38 |
| UGAGAGCAAUAUUACGUAGC | – | -2.96 ± 0.4 |
| UGAGAGCAAUAUUACGUCAA | -3.55 ± 0.29 | -2.89 ± 0.3 |
| UGAGAGCAAUAUUACGUCCG | -1.25 ± 0.23 | -1.19 ± 0.42 |
| UGAGAGCAAUAUUACGUCUU | -3.18 ± 0.44 | -1.9 ± 0.28 |
| UGAGAGCAAUAUUACGUGAA | -4.19 ± 0.33 | -2.35 ± 0.27 |
| UGAUAGCAAUAUUACGACAA | – | -2.07 ± 0.35 |
| UGAUAGCAAUAUUACGACGC | – | -3.55 ± 0.29 |
| UGAUAGCAAUAUUACGACUC | -3.07 ± 0.21 | -1.46 ± 0.18 |
| UGAUAGCAAUAUUACGAGUG | -1.14 ± 0.084 | -0.545 ± 0.12 |
| UGAUAGCAAUAUUACGCAAG | – | -2.3 ± 0.26 |
| UGAUAGCAAUAUUACGCACG | -1.41 ± 0.3 | -0.216 ± 0.19 |
| UGAUAGCAAUAUUACGCGUU | -2.9 ± 0.24 | -2.54 ± 0.39 |
| UGAUAGCAAUAUUACGCUCA | 0.162 ± 0.15 | -0.26 ± 0.15 |
| UGAUAGCAAUAUUACGCUUA | -2.07 ± 0.12 | -0.143 ± 0.12 |
| UGAUAGCAAUAUUACGGACA | -0.237 ± 0.1 | 0.61 ± 0.14 |
| UGAUAGCAAUAUUACGGGCC | -3.78 ± 0.42 | – |
| UGAUAGCAAUAUUACGGUAU | -3.75 ± 0.22 | -1.92 ± 0.18 |
| UGAUAGCAAUAUUACGGUCU | -0.913 ± 0.12 | -0.257 ± 0.15 |
| UGAUAGCAAUAUUACGGUGU | -3.45 ± 0.18 | -3.09 ± 0.24 |

Reference: the supplement of paper PMC7877785
